# Source: publication PMC4351158 (Structure (London, England : 1993), 2015)
# Where a chain is given by its changes, count along the chain named. Where no end group is shown, it is not given here. fluorescein = fluorescein, a fluorescent label on the peptide N-terminus
# T1: DegS P161A/H198P (E. coli, UniProt P0AEE3 27-355, P161A | H198P)
# T1 sequence (looked up): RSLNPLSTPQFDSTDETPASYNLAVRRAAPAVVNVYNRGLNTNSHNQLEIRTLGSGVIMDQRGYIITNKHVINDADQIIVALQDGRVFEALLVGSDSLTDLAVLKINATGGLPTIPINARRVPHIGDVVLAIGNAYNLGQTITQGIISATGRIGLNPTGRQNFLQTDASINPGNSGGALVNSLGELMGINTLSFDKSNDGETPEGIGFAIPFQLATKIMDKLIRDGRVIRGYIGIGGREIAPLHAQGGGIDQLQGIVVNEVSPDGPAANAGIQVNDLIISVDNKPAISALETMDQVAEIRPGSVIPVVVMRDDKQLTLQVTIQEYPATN
# T2: DegS E230A (E. coli, UniProt P0AEE3 27-355, E230A)
# T2 sequence (looked up): T1 sequence (looked up) with A135P, P172H, E204A
# T3: DegS Q191A (E. coli, UniProt P0AEE3 27-355, Q191A)
# T3 sequence (looked up): T1 sequence (looked up) with A135P, Q165A, P172H
# T4: DegS Q187A (E. coli, UniProt P0AEE3 27-355, Q187A)
# T4 sequence (looked up): T1 sequence (looked up) with A135P, Q161A, P172H
# T5: DegS H198P/P229A (E. coli, UniProt P0AEE3 27-355, H198P | P229A)
# T5 sequence (looked up): T1 sequence (looked up) with A135P, P203A
# T6: DegS T169A/H198P (E. coli, UniProt P0AEE3 27-355, T169A | H198P)
# T6 sequence (looked up): T1 sequence (looked up) with A135P, T143A
# How the values were obtained:
# Assay in all cases: fluorescence polarisation
# DegS P161A/H198P = molecular target: T1, DegS P161A/H198P
# DegS E230A = molecular target: T2, DegS E230A
# DegS Q191A = molecular target: T3, DegS Q191A
# DegS Q187A = molecular target: T4, DegS Q187A
# DegS H198P/P229A = molecular target: T5, DegS H198P/P229A
# DegS T169A/H198P = molecular target: T6, DegS T169A/H198P
binder,measurement,setting,value
fluorescein-DNRDGNVYYF [fluorescent OMP peptide fluorescein-DNRDGNVYYF],Kd,DegS P161A/H198P,2500 ± 400 nM
same,Kd,DegS E230A,5700 ± 1300 nM
same,Kd,DegS Q191A,3400 ± 1300 nM
same,Kd,DegS Q187A,2300 ± 100 nM
same,Kd,DegS H198P/P229A,2000 ± 100 nM
same,Kd,DegS T169A/H198P,2000 ± 200 nM
